The values that follow come from the NTF2 design screens of Basanta et al. (2020).

This data set in a line: protease stability score; higher = more stable; yeast display proteolysis, trypsin and chymotrypsin.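 Also: log10 excess protease needed over predicted unfolded state with 0 meaning unfolded.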
“DEKKWEQWARHFNQLMKQNDPDTLMQLFDPNARVKYGDKEVHGRTQIVKMWQTLVEQVDHIRIKNYSVSGDHVVIEIIVVVNGQEVEFVFRARVHNGTIKSASIDYRNEEHYKRAQG” displayed a protease stability score of 0.264.
The value for “DEKKYEELLREVQKYLYQGNYEEAQKVLAPNVVFEVGDYKMNGLEQVMKYYKKVKDRGAEIHVEEMEVTGHKARVVYKLHVGGRTIEVTAEVKVEDERVKKARVEVSEEYVKHVQHG” was 1.61; that for “DEKLEKLVDEFIEAEHTNNPEELKKLIDPNARFRIGDKDVHGREEWNEDMKRINDELRIEVHIKHVDARGDHVDIEMEFTFNVNGRPVNQTAKQQIKFENGRMKRVVNNVSEDQVEQLHR” was 0.194.
The value for “DEKLHHQIKEFIKAMKNGDPDKVQELADPNAEFRVGDKEIHGMDKYHKTVHDRHRKQRVNIQLHQLTVKGDKAEFVVTIDVQHNGQPSNDVYRAVIKLKNGKIQVVDRQKDQ” was -0.138.
The value for “DEKLIKLLKSLLKIQESGDPDKLRTMADPNVRFNIGDKVFHGMEEYATHVVELRKQAHIRIERLSNSDSNGVVNADFTRVNNHNGKPDSRRQEVTYVAHGDRIKEVNNQDHQ” was -0.503; that for “DEKLLDLLEKILQAEHENDPDQARELADPNVKYRYGDKSVNGRHEWVKDLERKTQKIKVEYKRIQVDAKGDKAHANVHMTVNHNGKPDKVLMEIVVRAHNGKVTELTVHEDK” was 0.041.
Consider “DEKLLELAKKMRRAEETGDEDQLREMADKDAKFDIGDKRIHGMDTFVRQIKHELDKMRREITSVEFRVEGEEVVIHVHWVYSHNGQPRTKEYTMKFEIRGDKIKDLHIDNRG”, for which the protease stability score stood at 0.007.
The value for “DEKLLKRLEEFWKAVRKGNKQEIEEYADPNVRFQIGDKQVHGRENAKKYFHDERREIRIEYHDLKVRVRGDRIEIRYTVQYTHNGQPTERHYDIEIVLNGEKMKSMSVRTDR” was -0.026; that for “DEKMLQHMEDALRRNDEQRLVELVDEDVKIKIGDRDVHGSERAQKIAETRKERIDSQDFKSMDLSGNKVTVDRVVVVNGVKFRVVVIYELSNGRIKRIEVRVTDEENKRRLQKQLS” was 0.63; that for “DEKNDRVLRRVMEAIHRGDPDKIHNQLDPNVKAEVGDKRFHGMEHIVEQVKRNWDNMRMRMKDVTVEDHNGQANAKVTYEVTENGQPKRAHVTVQAHAHDGRLTSVTYDTHE” was -0.371.
As for “DEKNEDAARKLFNAWKQNDPDHARKLADPNVRFKYGDTQVHGRDQYARELRETNKQMRLEYKHVTIRVKNGNAEVNMNVRYNHNGQPRESTRRMTFKVENGKLVDVDIKTDK”, the figure is 0.133.
As for “DEKNLNQLKDLIKTNDEERIHELMDPNVRLVIGDQEVQGRENVFKVLKRWRERADHVRYNDLKLHDGRAFADVEINVNGENIRVHYVYVAHNGRIKEIKVTATDEDEQRKVEDNYK”, the figure is 1.37.
Consider “DEKNMRVVETYLKALTRGDPDQAMRQVDEDVELTVGDKEVKGREEFSKLVKKWQDQARFSLQIHRVKVHENHVNINAEVTWDVNGKPQSFSHIIHARVHNGRIKHMSWEVPTEEWQNIEK”, for which the protease stability score worked out at 1.29.
The value for “DEKNSKLAKDFFEAIESNNPEHAKELADENARYQVGDKQLHGMDEVLKHIKRENERAQVTVSSMTFRISNGRVEVHMDVQRDDNGDPDKKNLVVNFHFRNGKIKEVQDKNDS” was 0.614.
As for “DEKQADRAEKFMRALNEGNEDQATRLFDPNAHVVYGDTEVHGRERIRETIRNLQREMSVRYEVHRIEDRNGHVNLHADVTLQHNGRPARYVLTINVRADNGTIVSLNMRVPEEEKEKMKG”, the figure is 0.15; as for “DEKQAKELADEYIKAFEEGDPDKHQELVDKDAQVNYGDKTLHGREEFRKLVEELRRQADHISVHNVDYQGNKVVVHYVVDVNGHKVELSYTVQYHDGRMKQASVSYRSEDLKREQEQ”, 0.384; as for “DEKQAKKVLKQMVKAVFNNDEELLKKLGKEDVEVQFMDTKYKGPDQLKKILEQYKRYGIEFHIKKTKVEGDKMQVHAQVHLADNTADVTAEYQADNGKVDHTRVQFSDTAKEVFKKG”, -0.003.
Regarding “DEKQALDVAHEAARAVAEGDDQKLREHMDPNATMEYGDKQVHGRENIMRVAKEFRDRADNVEIKSVHLTGNKVNVHVLLTHNGHTQRVRIDAKAHNGRVKSIRLDDK”, the protease stability score came out at 1.06.
As for “DEKQDKHYKKMMDEGDWKHFANNADPNARVDIGDKEYHGREQVNKALRRISEQADDFRVHDVQVENGRVRADVEFHVNGRSLKVDIRAVLHNGEVTHFHMSVTSEEVKQMLREIFD”, the figure is 0.289; as for “DEKQDRDIQRVLHDNNPDHMKKLVDENAHAQVGNKTYHGREQVLTLIEHMVRTVDHMSIDKVEVKNGKADMDYHVNINGQSARVRVDVKFHNGRIKEIRIQATDKEVRDILDEAFD”, 1.23.
As for “DEKQKKDLLKQAVEMYLSGNSEEVRKLLKDDGEVEAGDQTYKGVEQVMKVVEQFKRYGVKLQMTDLKVDGDTVKVKAKLQNGGKTWEFEVTAQADGGKVDKITFKYSEEAKEDIEKG”, the figure is -0.056.
As for “DEKQLHRVRHFLEVVRQGDEDNLREMADPNVRMVVGDKQFHGREEAVKFLVHKAKELRIDVKFKTINVRGDKVKAVAEMTENQNGKPHHAKLTWEIQMSNGKIQQLDFKLST”, the figure is 0.275; as for “DEKQLKHVQEWVETGDPDQFARNADPNAEIQIGNTTWQGREEIQKLAHRLKKQVDTQELKDIQVHGDHVLVNRVMEWDGHTFEFSMHIKVQNGRIKSVDVKVRDPSQQKELEDHLS”, -0.087; as for “DEKQLKKAADRMVKAMETGDPQQINRMADENVRVEVGDKRISGEEDINRWLKELSDQADHARVKSIDASGNTVRVEMTIVVNGRETKLTIHVHFENGTAHHVRFQKS”, 0.223.
With “DEKQLTLLRRIFEALLRNDEDKLKDLLDPNVKVRYGDKDLHGRENVAESIVRTNQEARFHVRRVTFRDHNGQAKVKVDFDQQHNGQPRSARLDVSMQRHNGRVKSISFKVDT”, the protease stability score was determined as 0.649.
As for “DEKQLVEVIREVIKALQQGHRDKVKKLGGPNVEVQAADYRNKGPEAILHMAEIVQRIGDEFQYRRTEQKGGTVTTTVEVHVGGHTVRYEVNAEAEGGKLKYWQADDDDKFIQHVKES”, the figure is 0.725; as for “DEKQMEQVNKNMETGDWDKLQEQADEDVRLVVGEREFHGREQFSEFAKQAKRMVDDNTIHRIDLQGEKVKIKFVIKHNGRTVDVTVVMEVHNGRIKRYVLRARDEDAEDIIRKMLS”, 0.902.
The value for “DEKQMRSVTKFIRVLQHGDNNQLRRLADPNAKARVGEKDVTGMDDILTRWVTFVEQARVKIDIREMDVSNGKVVIDAHIEIDINGRPLRDKITIIAEYRNGRLKFLELHVDQDFMRKVKR” was 0.223.
As for “DEKQNAEKVMTDVERNLREGDDNKIKEMADKDAKADVGEKKVTGREDIAKMLATLNKSVDEVTLDLKHVTTQGDFLNVKADIKWRHNGTTRQNKVEMWVNDFNGNVVIKHLRIG”, the figure is 1.08; as for “DEKQNDVVDDFMRAVREGDPTQLKSLVDPNARIQIGDRTYTGMEEYVTHVHKDLRKMRIEIRIKDIKAHNGHARIEFEVINTDNGRPDKKRMDVEFRIHNGKLKEAQYKSDR”, 0.766; as for “DEKQNNHFKDLMETNDWTQIAKQADENAKAKYGDKTVHGRENITHNNRRIKNRVDEMRIRNLTLEPNRIVQNFVVRVNGQDAQAVMTLEFENGRVKSVKLQARDTRVEEVLRKMMQ”, 0.465.
“DEKQNQEMQDMLHTGDFKRIADLVDENAEWNYGDKTYHGRKTIKKFLDAFQHRADHVEVKRFDVHNGHVSANMQMNVDGRRIDFRVVVHVENGRVKEYRMDFTDPRQQREVERQVE” had a protease stability score of 0.745.
The value for “DEKQQARDLVKELRDALKHGNEKQVVKMADENAKLQVGDKKVHGRKDIDKWAKDLRDRVDHVRLEVRSIDVHNGRMKFTATFTETHNGRKKERTMTMRARIQGDKFKIQQINLS” was 0.247; that for “DEKQVHKMARQLVKALEHNDPQKVADLVDENVRASIGDTEYHGREHVKKAIKQMVDSIDHMRVRTVTAHNGTIDIDFQVVVNGRTERYQMRAEVHNGRIQSLRVDKR” was 2.02; that for “DEKQVLELIRDVMKHVQNGNQEEVKKHGKPSVEVILFNERYTGPEALVRLAEFAQKLGAQFEYKETRHEGNKVKTKVEVTFGGTTVRYEVEVEAEGGKVVKWEVRASDEFDERVKKS” was 1.09.
The value for “DEKQVVKVAKRVVQAVFEGDEELMKKMGKEDVEVEVGDTKYKGVDQAVDLVRKYKEFGLEFELKKYEVKGDTVTFHAKLYAGDKTIDVTVHYRADDGKMDETKVELSEEADKAFKQH” was 1.1.
As for “DEKRAHDFAQQVIRVIQDGDPREAQKLADENVRVEYGDRTVHGKEQISNFAQEFRTRVDHVKIDTWHAQGDKIVIHLKVNVNGREKRVVVVVEVHNGRVKSLVYKDG”, the figure is 1.24.
“DEKRALEVIKRYAEYLKRGNADEARKMGKEGVEAEFGDTHVHGADQVKEYVKKVKDVGAHVEYKEVEYKGDTVTVKTEVTRGDAKVTFEVKYQAKGDKVVNLEMKFNKEQMKEFKKS” yielded a protease stability score of -0.015.
Turning to “DEKRARKLLEKAFELVQKGNKDTMRKIGKPNVKYKYVDQEYEGPEAMKFVIDVVKKIGAEVKKQEVEVKGDTAKATFQYRQGDKTVETRVEVKYEGDKLKEVRVEATDEVKKLVHQG”, the protease stability score was determined as 0.009.
The value for “DEKREKDVAENFNTILENNDPDNLRKQAPPEAHAVIGDTRYRGMETFVTIMKKMWDEVDHFTVDDYQVQNGRVTIQAHVQVNGRQVTLHLEMIIDNGHITHIRMDPRQYRQFEG” was -0.434; that for “DEKREQELAKKFADVFQRNNESELRKMIDENARYEIGDKTYRGTKAVKHVMKKVHDRADHVQVENFKAHNGTMELYLRYHVNGQDVRIIIELELRNGKVQHARYDVTSEEDRHNVEN” was 0.041.
As for “DEKRFTELAEKAFKIIMNGNEEEARKMGKPNVEYKYGDKEFEGEEAMQYAVQLVIKVGAEAKVRRMEVRGDTMRADFQYTLGDKTVQTTAQVQYEGDYAKKAENELSDEAKKIMHQG”, the figure is 0.434; as for “DEKRLKELLEHVFKQVMNGNEEEVLKHGKPDVQYEYLTKRYEGEDAMRVVIKKIKRIGAEVQVKRREVHGNTMRADFDYHKGDQTVRTTAEAKYEGDQVKEFRVKVTEEHKQVIHQG”, 0.104; as for “DEKRLKEVAKKVFEAVQKGDTEKLKKLGKEDGKFQFLDHRYKGKEEYARIMQKLKKHGVQFEIKKYQVKDNKVRMETVVTYGDQTFTVEAEARYEGGQLDEARVEMTEEAKERLKQG”, -0.084.
Sequence “DEKRLREIATRIVDALKTNNPEDFQKQLDEDAEVSIGDKTVRGQKQIVKMMDEFNSRVDEIDFKSYTAEGNQVVVNAVFNHNGRQQHLHFVFVFHNGKAKTVKAESS” gave a protease stability score of 1.12.
With “DEKRLTELLEVMKHGDFDRLANLMDKDVRIEYGDKSVRGREQAQHLMEKQKKRADHVEWKEYHFQGDTVSVRLVVRINGKEVEYHQTYRVNNGKITDMEQRARDEDDERQLRRVEG”, the protease stability score is -0.093.
As for “DEKRMKELMDKVFRLVMEGNEEDVVKMGAPDVKYKYADHEYKGPEVMKEVAVMVRRLGAEVRVKRKEVHGDTAQADFDYRKGDTTVRTTARVKYEGDKVKRAEVEVSDEVKKIVHQG”, the figure is 0.144.
